Earlier results on one substance are cited in publication PMC3386954.

As usually defined, the Kd is the concentration at which binding is half-saturated.

The data set has as its target Capillary morphogenesis gene 2 protein (Homo sapiens) (UniProt P58335).

Turning to “Protective antigen (from UniProt P13423)”, the Kd is over 0.17 nM.
